One substance from PMC4138882 can be followed below.

The assay concerns the target 3ftt-wt, wild-type trimeric protein from which T3-08 was derived (PDB ID 3FTT), C-terminal (His)6 construct. Description: SEC. (In general: SEC sorts molecules by how far they enter the pores of the column.)

In general, stoichiometry N refers to the number of molecules, sites or subunits per partner or assembly.

Sequence of 3ftt-wt, wild-type trimeric protein from which T3-08 was derived (PDB ID 3FTT), C-terminal (His)6 construct (Q5HCZ5 whole entry): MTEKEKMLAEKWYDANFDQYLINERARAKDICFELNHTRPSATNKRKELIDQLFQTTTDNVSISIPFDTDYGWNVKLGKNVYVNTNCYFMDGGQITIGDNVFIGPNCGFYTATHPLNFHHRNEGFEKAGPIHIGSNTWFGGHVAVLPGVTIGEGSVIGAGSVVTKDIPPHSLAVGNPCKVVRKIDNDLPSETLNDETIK

Take “3ftt-wt, wild-type trimeric protein from which T3-08 was derived (PDB ID 3FTT), C-terminal (His)6 construct (natural protein)”: the stoichiometry N was determined as 3 subunits.
